Measured values: patent US20150166647A1 (VLST, published 2015)

Columns and labels:
human MIP-1α/CCL3 [1] = molecular target: T1, human MIP-1α/CCL3 (human, UniProt P10147 24-92); experiment: BIAcore (SPR)
T1 construct: also called Biotin-MIP-1α
T1 sequence: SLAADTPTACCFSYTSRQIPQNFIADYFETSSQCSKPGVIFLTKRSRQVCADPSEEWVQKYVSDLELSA

human MIP-1α/CCL3 [2] = molecular target: T1, human MIP-1α/CCL3; experiment: cell-based or functional assay
human RANTES/CCL5 [3] = molecular target: T2, human RANTES/CCL5 (human, UniProt P13501 24-91); experiment: cell-based or functional assay
T2 sequence: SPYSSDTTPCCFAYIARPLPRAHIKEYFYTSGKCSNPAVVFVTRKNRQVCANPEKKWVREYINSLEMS

mouse MIP-1α/CCL3 [4] = molecular target: T3, mouse MIP-1α/CCL3 (mouse, UniProt P10855 24-92); experiment: MSD electrochemiluminescence, chemokine coated at 1 µg/mL
T3 construct: also called muMIP-1α
T3 sequence: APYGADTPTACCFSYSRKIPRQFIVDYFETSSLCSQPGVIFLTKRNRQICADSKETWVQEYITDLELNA

mouse MIP-1β/CCL4 [5] = molecular target: T4, mouse MIP-1β/CCL4 (mouse, UniProt P14097 24-92); experiment: as above
T4 construct: also called muMIP-1β
T4 sequence: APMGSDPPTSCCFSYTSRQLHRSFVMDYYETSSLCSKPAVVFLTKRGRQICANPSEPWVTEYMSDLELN

mouse RANTES/CCL5 = molecular target: T5, mouse RANTES/CCL5 (mouse, UniProt P30882 24-91); experiment: as above
T5 construct: also called muRANTES
T5 sequence (P30882 24-91 limits assumed): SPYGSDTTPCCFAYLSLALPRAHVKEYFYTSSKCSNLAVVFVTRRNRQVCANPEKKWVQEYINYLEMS

human MIP-1α/CCL3 [6] = molecular target: T1, human MIP-1α/CCL3; experiment: ELISA, hybridoma fusion-well supernatant on coated MIP-1α; background approx. 0.150
I-309 [7] = molecular target: T6, I-309; experiment: MSD electrochemiluminescence assay; chemokine coated at 1 µg/mL, 3C12F at 3 µg/mL; background = BSA
T6 construct: also called I-309/CCL1; CCL1
T6 chemokine: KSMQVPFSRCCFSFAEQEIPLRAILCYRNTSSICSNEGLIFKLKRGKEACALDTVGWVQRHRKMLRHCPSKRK

IL-8 [8] = molecular target: T7, IL-8; experiment: as above
T7 construct: also called IL-8/CXCL8; CXCL8
T7 sequence (chemokine, as listed by the source): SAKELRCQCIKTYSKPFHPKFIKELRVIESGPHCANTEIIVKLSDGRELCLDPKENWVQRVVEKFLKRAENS

SDF [9] = molecular target: T8, SDF; experiment: as above
T8 construct: also called SDF-1/CXCL12; CXCL12
T8 sequence (chemokine, as listed by the source): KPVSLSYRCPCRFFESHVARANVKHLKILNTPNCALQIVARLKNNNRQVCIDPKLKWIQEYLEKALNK

HCC-4 [10] = molecular target: T9, HCC-4; experiment: as above
T9 construct: also called HCC-4/CCL16; CCL16
T9 chemokine: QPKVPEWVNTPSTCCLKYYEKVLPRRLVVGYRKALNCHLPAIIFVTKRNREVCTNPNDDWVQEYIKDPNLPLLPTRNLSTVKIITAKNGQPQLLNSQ

MCP-3 [11] = molecular target: T10, MCP-3; experiment: as above
T10 construct: also called MCP-3/CCL7; CCL7
T10 sequence (chemokine, as listed by the source): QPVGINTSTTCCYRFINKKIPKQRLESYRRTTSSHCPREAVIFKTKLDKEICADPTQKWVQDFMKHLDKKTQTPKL

MCP-4 [12] = molecular target: T11, MCP-4; experiment: as above
T11 construct: also called MCP-4/CCL13; CCL13
T11 sequence (chemokine, as listed by the source): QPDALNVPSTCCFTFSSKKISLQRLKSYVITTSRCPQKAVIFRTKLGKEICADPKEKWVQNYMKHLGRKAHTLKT

MDC [13] = molecular target: T12, MDC; experiment: as above
T12 construct: also called MDC/CCL22; CCL22
T12 chemokine: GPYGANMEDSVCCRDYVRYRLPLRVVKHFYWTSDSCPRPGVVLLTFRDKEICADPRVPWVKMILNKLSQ

ELC = molecular target: T13, ELC; experiment: as above
T13 construct: also called ELC/MIP-3β/CCL19; CCL19
T13 chemokine: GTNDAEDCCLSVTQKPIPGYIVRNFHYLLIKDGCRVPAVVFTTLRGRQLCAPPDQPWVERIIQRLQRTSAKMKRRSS

human MPIF-1/CCL23 = molecular target: T14, human MPIF-1/CCL23 (human, UniProt P55773 46-120); experiment: as above
T14 sequence: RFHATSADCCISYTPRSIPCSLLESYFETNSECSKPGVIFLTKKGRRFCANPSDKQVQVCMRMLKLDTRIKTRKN

human HCC-2/MIP-1δ/CCL15 = molecular target: T15, human HCC-2/MIP-1δ/CCL15 (human, UniProt Q16663 46-113); experiment: as above
T15 sequence: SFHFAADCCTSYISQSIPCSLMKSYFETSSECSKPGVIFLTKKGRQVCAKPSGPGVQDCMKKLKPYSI

human HCC-1/CCL14/CCL14a [14] = molecular target: T16, human HCC-1/CCL14/CCL14a (human, UniProt Q16627 28-93); experiment: as above
T16 sequence: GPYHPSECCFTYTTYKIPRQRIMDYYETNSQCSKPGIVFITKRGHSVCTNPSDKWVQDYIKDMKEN

human PARC/CCL18 = molecular target: T17, human PARC/CCL18 (human, UniProt P55774 21-89); experiment: as above
T17 sequence: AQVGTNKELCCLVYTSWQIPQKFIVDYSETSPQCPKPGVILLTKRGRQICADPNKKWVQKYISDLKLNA

human MCP-1/CCL2 [15] = molecular target: T18, human MCP-1/CCL2 (human, UniProt P13500 24-99); experiment: as above
T18 construct: also called Biotin-MCP1
T18 sequence (P13500 24-99 limits assumed): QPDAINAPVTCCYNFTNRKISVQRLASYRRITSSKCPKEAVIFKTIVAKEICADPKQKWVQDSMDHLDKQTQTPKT

human MIP-1β/CCL4 = molecular target: T19, human MIP-1β/CCL4 (human, UniProt Q8NHW4 24-92); experiment: ELISA, hybridoma fusion-well supernatant on biotinylated chemokine on streptavidin plate; background approx. 0.150
T19 construct: also called Biotin-MIP-1β
T19 chain: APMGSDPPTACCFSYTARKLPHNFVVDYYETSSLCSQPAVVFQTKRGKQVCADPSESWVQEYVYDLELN

human RANTES/CCL5 [16] = molecular target: T2, human RANTES/CCL5; experiment: as above
human MCP-1/CCL2 [17] = molecular target: T18, human MCP-1/CCL2; experiment: as above
mouse MIP-1α/CCL3 [18] = molecular target: T3, mouse MIP-1α/CCL3; experiment: Binding (MSD)
mouse MIP-1β/CCL4 [19] = molecular target: T4, mouse MIP-1β/CCL4; experiment: Binding (MSD)
I-309 [20] = molecular target: T6, I-309; experiment: MSD electrochemiluminescence assay; chemokine coated at 1 µg/mL, 7D1G at 3 µg/mL; background = BSA
IL-8 [21] = molecular target: T7, IL-8; experiment: as above
SDF [22] = molecular target: T8, SDF; experiment: as above
Fractalkine = molecular target: T20, Fractalkine; experiment: as above
T20 construct: also called Fractalkine/CX3CL1; CX3CL1
T20 chemokine: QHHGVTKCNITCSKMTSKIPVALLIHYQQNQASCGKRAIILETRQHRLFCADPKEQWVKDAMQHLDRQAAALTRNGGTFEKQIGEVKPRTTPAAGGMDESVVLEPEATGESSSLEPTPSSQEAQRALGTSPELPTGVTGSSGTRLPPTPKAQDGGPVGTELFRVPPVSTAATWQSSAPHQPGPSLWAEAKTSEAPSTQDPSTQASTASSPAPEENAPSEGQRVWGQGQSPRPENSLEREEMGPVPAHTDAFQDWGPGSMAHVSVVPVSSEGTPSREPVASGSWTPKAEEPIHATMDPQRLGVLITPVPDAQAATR

HCC-4 [23] = molecular target: T9, HCC-4; experiment: as above
MCP-2 = molecular target: T21, MCP-2; experiment: as above
T21 construct: also called MCP-2/CCL8; CCL8
T21 chemokine: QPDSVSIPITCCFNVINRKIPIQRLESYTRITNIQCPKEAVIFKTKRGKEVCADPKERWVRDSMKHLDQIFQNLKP

MCP-3 [24] = molecular target: T10, MCP-3; experiment: as above
MCP-4 [25] = molecular target: T11, MCP-4; experiment: as above
Eotaxin = molecular target: T22, Eotaxin; experiment: as above
T22 construct: also called Eotaxin/CCL11; CCL11
T22 sequence (chemokine, as listed by the source): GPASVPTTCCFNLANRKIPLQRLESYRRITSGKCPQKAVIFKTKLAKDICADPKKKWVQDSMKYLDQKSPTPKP

MDC [26] = molecular target: T12, MDC; experiment: as above
human HCC-1/CCL14/CCL14a [27] = molecular target: T16, human HCC-1/CCL14/CCL14a; experiment: as above
human MCP-1/CCL2 [28] = molecular target: T18, human MCP-1/CCL2; experiment: as above

B1: monoclonal antibody 3C12F (antibody, V domains shown)
VH: EVQLQQSGAELVKPGASVKLSCTASGFNIKDTYIHWVKQRPEQGLEWIGRIDPANGNTQYDPKFQGKATITADTSSNTAYLQLTSLTSEDTAVYYCARRWDYDYAMDYWGQGTSVTVSS
VL: DIQMTQSPASLSASVGETVTITCRGSGNIHNYLAWYQQKQGKSPQLLVYNAKTLADGVPSRFSGSGSGTQYSLKINSLQPEDFGSYYCQHFWSTPYTFGGGTKLEIK
notes: also called MAb 3C12F
0.189: ELISA signal (human MCP-1/CCL2 [17])
49 nM: Kd (human MIP-1α/CCL3 [1])
1.84: ELISA signal (human MIP-1α/CCL3 [6])
3 to 5 µg/mL: IC50 of inhibition of chemotaxis (5 ng/mL chemokine) (human MIP-1α/CCL3 [2]) | IC50 of inhibition of chemotaxis (5 ng/mL chemokine) (human RANTES/CCL5 [3])
1.92: ELISA signal (human MIP-1β/CCL4)
no binding (tested: 3 µg/mL): binding result (mouse MIP-1α/CCL3 [4]) | binding result (mouse MIP-1β/CCL4 [5]) | binding result (mouse RANTES/CCL5) | binding result (I-309 [7]) | binding result (IL-8 [8]) | binding result (SDF [9]) | binding result (HCC-4 [10]) | binding result (MCP-3 [11]) | binding result (MCP-4 [12]) | binding result (MDC [13]) | binding result (ELC) | binding result (human HCC-1/CCL14/CCL14a [14]) | binding result (human PARC/CCL18) | binding result (human MCP-1/CCL2 [15])
binds: binding result (human MPIF-1/CCL23) | binding result (human HCC-2/MIP-1δ/CCL15)
2.61: ELISA signal (human RANTES/CCL5 [16])

B2: monoclonal antibody 7D1G (antibody, V domains shown)
VH: QVQLQQPGAELVKPGASVKMSCKASGYTFTSYNIHWVKQTPGQGLEWIGAVSPRNGDTSYNQRFKGKATLTADISSSTAYMQLSSLTSEDSAVYYCARGYGYDYWGQGTTLTVSS
VL: DVVLTQSPATLSVTPGDRVSLSCRASQSVSKYLHWYQQKSHESPRLLIKYVSQSISGIPSRFSGSGSGTDFTLSINSVETEDLGMYFCQQSNSWPHTFGAGTKLELK
notes: also called MAb 7D1G
no binding (tested: 3 µg/mL): binding result (mouse RANTES/CCL5) | binding result (I-309 [20]) | binding result (IL-8 [21]) | binding result (SDF [22]) | binding result (Fractalkine) | binding result (HCC-4 [23]) | binding result (MCP-2) | binding result (MCP-3 [24]) | binding result (MCP-4 [25]) | binding result (Eotaxin) | binding result (MDC [26]) | binding result (human MCP-1/CCL2 [28])
0.145: ELISA signal (human RANTES/CCL5 [16])
1.7: ELISA signal (human MIP-1α/CCL3 [6])
2.57: ELISA signal (human MIP-1β/CCL4)
binds: binding result (mouse MIP-1α/CCL3 [18]) | binding result (mouse MIP-1β/CCL4 [19]) | binding result (human HCC-1/CCL14/CCL14a [27])
0.22: ELISA signal (human MCP-1/CCL2 [17])
